Numbered stars: 1 amine (or outer) side, 2 acyl side, 3 side chain; on linkers, the order of the positions; unused ones are H or OH. Bridge positions count the residues as written; N and C are the ends. Side chains are listed from the residue outwards. Ends that are not written are not given here. * marks the point of attachment. C20 diacid = O=C(O)CCCCCCCCCCCCCCCCCCC(=O)*; γGlu = O=C(O)[C@H](CCC(=O)[*:2])N[*:1]; AEEA = NCCOCCOCC(=O)O
T1: rat calcitonin receptor (rat, UniProt P32214 25-516)
T1 construct: whole, on cells; Membranes of transiently transfected BHK tk'ts 13 cells; also called rCTR; rat calcitonin (a) receptor
T1 sequence (looked up): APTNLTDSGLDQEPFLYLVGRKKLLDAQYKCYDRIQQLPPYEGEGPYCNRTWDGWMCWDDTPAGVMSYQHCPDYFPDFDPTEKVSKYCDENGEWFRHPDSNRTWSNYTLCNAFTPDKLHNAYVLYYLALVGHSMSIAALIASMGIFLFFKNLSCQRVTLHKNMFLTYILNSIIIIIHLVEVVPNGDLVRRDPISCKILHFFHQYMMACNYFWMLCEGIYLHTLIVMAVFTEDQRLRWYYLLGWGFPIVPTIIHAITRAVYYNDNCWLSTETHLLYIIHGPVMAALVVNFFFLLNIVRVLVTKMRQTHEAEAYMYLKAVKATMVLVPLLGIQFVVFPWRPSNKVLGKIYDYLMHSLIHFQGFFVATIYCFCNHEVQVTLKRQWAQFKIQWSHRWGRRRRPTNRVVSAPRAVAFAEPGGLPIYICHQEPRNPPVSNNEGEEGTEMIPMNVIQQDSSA

T2: human calcitonin receptor (human, UniProt P30988 25-474)
T2 construct: whole, on cells; Membranes of stably transfected cells; also called hCTR; hCT
T2 sequence (looked up): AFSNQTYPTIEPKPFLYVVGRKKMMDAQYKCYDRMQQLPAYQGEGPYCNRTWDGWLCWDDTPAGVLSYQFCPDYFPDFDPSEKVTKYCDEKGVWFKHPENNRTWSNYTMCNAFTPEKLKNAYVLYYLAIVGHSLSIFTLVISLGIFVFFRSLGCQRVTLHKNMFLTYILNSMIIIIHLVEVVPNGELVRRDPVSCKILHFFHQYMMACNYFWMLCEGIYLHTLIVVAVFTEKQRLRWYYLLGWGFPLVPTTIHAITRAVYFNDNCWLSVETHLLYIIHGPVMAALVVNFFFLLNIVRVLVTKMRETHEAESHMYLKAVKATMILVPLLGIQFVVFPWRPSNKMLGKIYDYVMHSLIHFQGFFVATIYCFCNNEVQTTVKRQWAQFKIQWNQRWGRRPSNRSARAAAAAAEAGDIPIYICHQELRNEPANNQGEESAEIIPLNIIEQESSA

T3: rat amylin receptor (rat calcitonin receptor + rat RAMP 3) (rat, UniProt P32214 25-516; Q9JJ73 23-147)
T3 construct: whole, on cells; Membranes of transiently transfected BHK tk'ts 13 cells; also called rAmylin-R; rat amylin 3(a) receptor
T3 sequence (looked up) 1: T1 sequence (looked up)
T3 sequence (looked up) 2: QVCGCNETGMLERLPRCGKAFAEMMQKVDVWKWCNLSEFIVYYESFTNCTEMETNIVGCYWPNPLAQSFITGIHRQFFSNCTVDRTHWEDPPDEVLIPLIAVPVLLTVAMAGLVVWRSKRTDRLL

B1: N^ε1-[2-[2-[2-[[2-[2-[2-[[(4S)-4-carboxy-4-(19-carboxynonadecanoylamino)butanoyl]amino]ethoxy]ethoxy]acetyl]amino]ethoxy]ethoxy]acetyl]-[Arg17,Pro21,Pro27,Arg34 … (peptide)
peptide: K([AEEA-AEEA-γGlu-C20 diacid])CNTATCATQRLANFLRHSSPNFGAIPSSTNVGRNTY-NH2
modifications: disulfide 2-7; N-terminus assumed
SMILES: CC[C@H](C)[C@H](NC(=O)[C@H](C)NC(=O)CNC(=O)[C@H](Cc1ccccc1)NC(=O)[C@H](CC(N)=O)NC(=O)[C@@H]1CCCN1C(=O)[C@H](CO)NC(=O)[C@H](CO)NC(=O)[C@H](Cc1c[nH]cn1)NC(=O)[C@H](CCCNC(=N)N)NC(=O)[C@H](CC(C)C)NC(=O)[C@H](Cc1ccccc1)NC(=O)[C@H](CC(N)=O)NC(=O)[C@H](C)NC(=O)[C@H](CC(C)C)NC(=O)[C@H](CCCNC(=N)N)NC(=O)[C@H](CCC(N)=O)NC(=O)[C@@H](NC(=O)[C@H](C)NC(=O)[C@@H]1CSSC[C@H](NC(=O)[C@@H](N)CCCCNC(=O)COCCOCCNC(=O)COCCOCCNC(=O)CC[C@H](NC(=O)CCCCCCCCCCCCCCCCCCC(=O)O)C(=O)O)C(=O)N[C@@H](CC(N)=O)C(=O)N[C@@H]([C@@H](C)O)C(=O)N[C@@H](C)C(=O)N[C@@H]([C@@H](C)O)C(=O)N1)[C@@H](C)O)C(=O)N1CCC[C@H]1C(=O)N[C@@H](CO)C(=O)N[C@@H](CO)C(=O)N[C@H](C(=O)N[C@@H](CC(N)=O)C(=O)N[C@H](C(=O)NCC(=O)N[C@@H](CCCNC(=N)N)C(=O)N[C@@H](CC(N)=O)C(=O)N[C@H](C(=O)N[C@@H](Cc1ccc(O)cc1)C(N)=O)[C@@H](C)O)C(C)C)[C@@H](C)O
notes: Synthetic acylated analogue of human amylin; also called compound 95
B2: N^ε1-[2-[2-[2-[[2-[2-[2-[[(4S)-4-carboxy-4-(19-carboxynonadecanoylamino)butanoyl]amino]ethoxy]ethoxy]acetyl]amino]ethoxy]ethoxy]acetyl]-[Arg17,Pro21,Pro27,Pro31 … (peptide)
peptide: K([AEEA-AEEA-γGlu-C20 diacid])CNTATCATQRLANFLRHSSPNFGAIPSSTPVGSNTY-NH2
modifications: disulfide 2-7; N-terminus assumed
SMILES: CC[C@H](C)[C@H](NC(=O)[C@H](C)NC(=O)CNC(=O)[C@H](Cc1ccccc1)NC(=O)[C@H](CC(N)=O)NC(=O)[C@@H]1CCCN1C(=O)[C@H](CO)NC(=O)[C@H](CO)NC(=O)[C@H](Cc1c[nH]cn1)NC(=O)[C@H](CCCNC(=N)N)NC(=O)[C@H](CC(C)C)NC(=O)[C@H](Cc1ccccc1)NC(=O)[C@H](CC(N)=O)NC(=O)[C@H](C)NC(=O)[C@H](CC(C)C)NC(=O)[C@H](CCCNC(=N)N)NC(=O)[C@H](CCC(N)=O)NC(=O)[C@@H](NC(=O)[C@H](C)NC(=O)[C@@H]1CSSC[C@H](NC(=O)[C@@H](N)CCCCNC(=O)COCCOCCNC(=O)COCCOCCNC(=O)CC[C@H](NC(=O)CCCCCCCCCCCCCCCCCCC(=O)O)C(=O)O)C(=O)N[C@@H](CC(N)=O)C(=O)N[C@@H]([C@@H](C)O)C(=O)N[C@@H](C)C(=O)N[C@@H]([C@@H](C)O)C(=O)N1)[C@@H](C)O)C(=O)N1CCC[C@H]1C(=O)N[C@@H](CO)C(=O)N[C@@H](CO)C(=O)N[C@H](C(=O)N1CCC[C@H]1C(=O)N[C@H](C(=O)NCC(=O)N[C@@H](CO)C(=O)N[C@@H](CC(N)=O)C(=O)N[C@H](C(=O)N[C@@H](Cc1ccc(O)cc1)C(N)=O)[C@@H](C)O)C(C)C)[C@@H](C)O
notes: Synthetic acylated analogue of human amylin; also called compound 96
B3: N^ε1-[2-[2-[2-[[2-[2-[2-[[(4S)-4-carboxy-4-(19-carboxynonadecanoylamino)butanoyl]amino]ethoxy]ethoxy]acetyl]amino]ethoxy]ethoxy]acetyl]-[Arg17,Pro21,Pro27,Pro34 … (peptide)
peptide: K([AEEA-AEEA-γGlu-C20 diacid])CNTATCATQRLANFLRHSSPNFGAIPSSTNVGPNTY-NH2
modifications: disulfide 2-7; N-terminus assumed
SMILES: CC[C@H](C)[C@H](NC(=O)[C@H](C)NC(=O)CNC(=O)[C@H](Cc1ccccc1)NC(=O)[C@H](CC(N)=O)NC(=O)[C@@H]1CCCN1C(=O)[C@H](CO)NC(=O)[C@H](CO)NC(=O)[C@H](Cc1c[nH]cn1)NC(=O)[C@H](CCCNC(=N)N)NC(=O)[C@H](CC(C)C)NC(=O)[C@H](Cc1ccccc1)NC(=O)[C@H](CC(N)=O)NC(=O)[C@H](C)NC(=O)[C@H](CC(C)C)NC(=O)[C@H](CCCNC(=N)N)NC(=O)[C@H](CCC(N)=O)NC(=O)[C@@H](NC(=O)[C@H](C)NC(=O)[C@@H]1CSSC[C@H](NC(=O)[C@@H](N)CCCCNC(=O)COCCOCCNC(=O)COCCOCCNC(=O)CC[C@H](NC(=O)CCCCCCCCCCCCCCCCCCC(=O)O)C(=O)O)C(=O)N[C@@H](CC(N)=O)C(=O)N[C@@H]([C@@H](C)O)C(=O)N[C@@H](C)C(=O)N[C@@H]([C@@H](C)O)C(=O)N1)[C@@H](C)O)C(=O)N1CCC[C@H]1C(=O)N[C@@H](CO)C(=O)N[C@@H](CO)C(=O)N[C@H](C(=O)N[C@@H](CC(N)=O)C(=O)N[C@H](C(=O)NCC(=O)N1CCC[C@H]1C(=O)N[C@@H](CC(N)=O)C(=O)N[C@H](C(=O)N[C@@H](Cc1ccc(O)cc1)C(N)=O)[C@@H](C)O)C(C)C)[C@@H](C)O
notes: Synthetic acylated analogue of human amylin; also called compound 98
B4: N^ε1-[2-[2-[2-[[2-[2-[2-[[(4S)-4-carboxy-4-(19-carboxynonadecanoylamino)butanoyl]amino]ethoxy]ethoxy]acetyl]amino]ethoxy]ethoxy]acetyl]-[Arg17,Pro21,Pro27,His34 … (peptide)
peptide: K([AEEA-AEEA-γGlu-C20 diacid])CNTATCATQRLANFLRHSSPNFGAIPSSTNVGHNTY-NH2
modifications: disulfide 2-7; N-terminus assumed
SMILES: CC[C@H](C)[C@H](NC(=O)[C@H](C)NC(=O)CNC(=O)[C@H](Cc1ccccc1)NC(=O)[C@H](CC(N)=O)NC(=O)[C@@H]1CCCN1C(=O)[C@H](CO)NC(=O)[C@H](CO)NC(=O)[C@H](Cc1c[nH]cn1)NC(=O)[C@H](CCCNC(=N)N)NC(=O)[C@H](CC(C)C)NC(=O)[C@H](Cc1ccccc1)NC(=O)[C@H](CC(N)=O)NC(=O)[C@H](C)NC(=O)[C@H](CC(C)C)NC(=O)[C@H](CCCNC(=N)N)NC(=O)[C@H](CCC(N)=O)NC(=O)[C@@H](NC(=O)[C@H](C)NC(=O)[C@@H]1CSSC[C@H](NC(=O)[C@@H](N)CCCCNC(=O)COCCOCCNC(=O)COCCOCCNC(=O)CC[C@H](NC(=O)CCCCCCCCCCCCCCCCCCC(=O)O)C(=O)O)C(=O)N[C@@H](CC(N)=O)C(=O)N[C@@H]([C@@H](C)O)C(=O)N[C@@H](C)C(=O)N[C@@H]([C@@H](C)O)C(=O)N1)[C@@H](C)O)C(=O)N1CCC[C@H]1C(=O)N[C@@H](CO)C(=O)N[C@@H](CO)C(=O)N[C@H](C(=O)N[C@@H](CC(N)=O)C(=O)N[C@H](C(=O)NCC(=O)N[C@@H](Cc1c[nH]cn1)C(=O)N[C@@H](CC(N)=O)C(=O)N[C@H](C(=O)N[C@@H](Cc1ccc(O)cc1)C(N)=O)[C@@H](C)O)C(C)C)[C@@H](C)O
notes: Synthetic acylated analogue of human amylin; also called compound 97

molecular target: T1, rat calcitonin receptor; experiment: ratio of IC50 on rat calcitonin receptor to IC50 on rat amylin receptor (reference m40)

Ratio rCT/rAmylin binding	Binder
71.3	B1
118	B2
176	B3
71.1	B4

molecular target: T1, rat calcitonin receptor; experiment: SPA competition with 125I-calcitonin on membranes of BHK tk'ts 13 cells with rat calcitonin receptor (Assay VIII)

IC50 [nM]	Binder
388	B1
62.2	B2
24.1	B3
159	B4

molecular target: T2, human calcitonin receptor; experiment: ratio of IC50 on human calcitonin receptor to IC50 on human amylin receptor (reference m42), SPA competition
Method: The resulting pellet was resuspended, homogenized and centrifuged (20.000 rpm, 15 min) in a buffer containing 20 mM Na-HEPES and 0.1 mM EDTA (pH 7.4, buffer 2). The resulting pellet was resuspended in buffer 2 and protein concentration was measured (BCA protein Assay, Pierce). The homogenate was kept cold during the whole procedure. The membranes were kept at −80° C. until use. The assay was performed in a 384 well Optiplate (PerkinElmer) in a total volume of 40 ul. Membranes were mixed with SPA beads. Final concentration of membranes 35 ng/μL final and SPA beads was 0.05 mg/well. Test-compounds were dissolved in DMSO and further diluted in assay buffer (50 mM Hepes, pH 7.4, 1 mM CaCl2, 5 mM MgCl₂, 0.1% OA and 0.02% Tween20). […] The final mixture was incubated with shaking at 400 rpm for 120 min at 25° C. prior to centrifugation (1500 rpm, 10 min). Samples were analyzed on TopCounter™ (Packard). The IC₅₀ was calculated using (one site binding competition analysis) GraphPad Prism5 as a measure of receptor affinity.
Membranes were prepared in the following way; the cells were rinsed with PBS and incubated with Versene for approximately 5 min before harvesting. The cells were flushed with PBS and the cell-suspension was centrifuged for 5 min at 1000 rpm. Cells were homogenized (Ultrathurrax) in a buffer containing 20 mM Na-HEPES and 10 mM EDTA (pH 7.4) and centrifuged at 20.000 rpm for 15 min. The resulting pellet was resuspended, homogenized and centrifuged (20.000 rpm, 15 min) in a buffer containing 20 mM Na-HEPES and 0.1 mM EDTA (pH 7.4, buffer 2). The resulting pellet was resuspended in buffer 2 and protein concentration was measured (BCA protein Assay, Pierce). The homogenate was kept cold during the whole procedure. The membranes were kept at −80° C. until use. Assay was performed in a 384 well Optiplate (PerkinElmer) in a total volume of 40 ul. Membranes were mixed with SPA beads.

Ratio hCT/hAmylin binding	Binder
63.4	B1
79.6	B2
74.1	B3
104	B4

molecular target: T3, rat amylin receptor (rat calcitonin …); experiment: SPA competition with 125I-rat amylin on membranes of BHK tk'ts 13 cells with rat calcitonin receptor + rat RAMP3 (Assay VI)

IC50 [nM]	Binder
5.45	B1
0.529	B2
0.137	B3
2.24	B4

Source: patent US20140087995A1 (published 2014)
